According to the DeepSol protein solubility set:

Test: soluble on expression in E. coli; label from the status in PepcDB or PDB records

Row | Sequence | soluble on expression in E. coli
1 | GVNSVAARVTELTGREVAAVAERGHSHRWHLYRVELADGTPLFVKALPDDAPALDGLFRAEALGLDWLGRSFGSPVPQVAGWDDRTLAMEWVDERPPTPEAAERFGHQLAAMHLAGAESFGATWDGYIGPLPMDNTPRSTWPEFYAEQRILPYLRRAADRGALTPGDVRLVEKVLDALDHLAGDPEPPARIHGDLWNGNVLWQDDGAVVIDPAAHGGHREADLAMLALFGLPYLDRVRDAYNEVAPLAEGWRARIPLHQLHPLLVHVCLFGAAYRTTLVDTARAALRA | soluble
2 | MSLTKSVAIIGAGITGLSSAYFLKQQDPNIDVTIFEASNRPGGKIQSYRKDGYMIELGPESYLGRKTIMTELAKDIGLEQDIVTNTTGQSYIFAKNKLYPIPGGSIMGIPTDIKPFVTTKLISPLGKLRAGLDLIKKPIQMQDGDISVGAFFRARLGNEVLENLIEPLMGGIYGTDIDKLSLMSTFPNFKEKEEAFGSLIKGMKDEKNKRLKQRQLYPGAPKGQFKQFKHGLSSFIEALEQDVKNKGVTIRYNTSVDDIITSQKQYKIVYSNQQEDVFDGVLVTTPHQVFLNWFGQDPAFDYFKTMDSTTVATVVLAFDEKDIENTYDGTGFVIARTSDTDITACTWTSKKWPFTTPEGKVLIRAYVGKPGDTVVDDHTDNELVSIVRRDLSQMMTFKGDPEFTIVNRLPKSMPQYHVGHIQQIRQIQAHIKQTYPRLRVTGASFEAVGLPDCITQGKVAAEEVIAELEGHHHHHH | soluble
3 | MGSDKIHHHHHHMNQHIKGKHLSFEERVIIQLRLKDGYSLRAIARELNCSPSTISYEVKRGTVELYGKVKRYKATQGHDAYQAHRKNCGRKSDFLRKTQFMRYVHKHFFKDGWSLDVCSNRATAVGAFSSRDVVCTKTLYNYVDQGLLDIHNYDLPEKLKRNTKLHRIRKNKKKLGRSIEERPKEINKRNEFGHWECDLVLGHKCTDDEVLLALSERMSREFLILRIPDKTSVSVMQAFKELQRQYSEHWNDIFKTITTDNGSEFADLSNLEKASNTLVYYAHPYTSCDKGTVERHNGLIRRFIPKEEAIANYSLQDIINIETWCNSLPRKILAYHTPDEIFERELDLIYQAA | not soluble
4 | SASSSKALIESIGSLDKDSYVSLLSKLIGESKFVQNNPPELIPQEDLIVKHVLDSLRPYSTETGGGPLVINHVAYHSGRGNLIVEYPGSVPGKILSFVGMHMDVVTANPDDWEFDPFSLSIDGDKLRGRGTTDCLGHVALVTELMKKLGQAKPALKSTVVAVFIASEENSSIPGVGVDMLVKDKLLDKLKSGPLYWIDTADKQPCVGTGGMIPWKLQFTGKLFHSGLAHKAINAMELAMEGLKEIQARFYRDFPPHPQEEVYGFATPSTMKPTQWCYPAGGINQIPGECTVSGDVRLTPFYDVKEVITKLQEYVDDINGNIERLETRGPVSKYVLPDENLRGRLTLSFDEASAGVACNLDSPGFHVLCKATEEVVGHVKPYSITGTLPLIRDLQDEGFDVQTSGYGLMATYHAKNEYCLLTDMCQGFDVFIRIISQLEQV | soluble
5 | MYNDDELTEFMDFLVEQTKDSIYPMVAAKVFKQFPNRRLIPKDKRYQRFVLQLAPKMNDWNNYSIEARIRLMYALRGKVEDDFLARIEAHGTVQLNEKQRISKFTANDGTFFLEDDRKRLSLDATRLEFVKLMGFLIEKTKDAVEPLPNTKLIFQEFSQIEPVKKPNDTDIMYKFRSSLAPYMDKWNDYSIEDRVRLMFALGGKIKDGFLRTIETHGTLQLDDKRRITKYVSNDGNFKLEGIRRNVHKKEATGPEYTRFMDFLIKTTKEAVEPMRVWLVHNEFKRQEGRKFSKSGYAKRFHKKLAPNMSKWTNYKIEERTRMMFAMKGKVESDFLAQIEESGKVQLDENHLIVKYTSKNRKIKLGGETRLVEKKKRKSTNYHKMHQKRRKIIRSVTDETSLVAKWKRKSDSYYEMYQKRRKIGEKELSDTAEVEEVAPYDSDYGNVYVENLEAEDQDTQLNPFNAMSDLTTDGPSSNAHDLTMWPNDDPKQEPVFENIFIQNQYFPPEIEEVPNQGVYHVEPETKLSYINTNPGSSVTESGGIKLHKFLNLLELILTSLESDTLDDLLNDIEGIRVRINDEILPPELVITALQTFLLGITRKSRSAASAENKSSHECLRIFKYSLPWLRSPLLWELQQRVEEEIESHVIGGKIILVADVQQGIRNILFAVSN | not soluble
6 | MGSDKIHHHHHHMMENFPKPVVVVSKCLGFDSCRYNGDIIDAPFVDKLRSHVTFVPVCPEVEIGLGVPRKPIRIVSDKGITTLYQPATGKDFTGTMRSFVDDFLGSLTEVDGFLLKNRSPSCGVGDVKIHAGFDEGARMFRGSGFLGGAVLERFAGLPVEDEGRIRNFTIREHFLTRLFLFARFREVKKSGSMRGLVDFHSLQKLLLMGYNQAQMRLLGKIVANHEKADWNTMITRYEEQLKRALANPPRFTAMINVLLHAFGGFSNVLAKEEKAFFLDLIEEYRDERIPLSALLQVLRGWSIRFRNDYLLGQTFLQPYPGQLSKITDSGKGREP | not soluble
7 | MGSDKIHHHHHHMGAKKNFVLDTNVILHDYKCIENFQENDIYLPIVVLEELDKFKKGSEQINYNAREFVRELDLLTSNDLFLKGASLGPGKGTLYIVTGDKYQEKIAHSFPDKTPDHRILSCALTIAEKNPKIKTTLVSKDVNLRMKARSLGIPVEDYITDKVVNVDIFERAQETYENIDPDLIDKIYSSPEGVDADSLDIKSKLDPNECFILKSVRNSVLARYNPFTDKIKKVDKGTNFGIQPRNAEQSFAFEVLNDPNIKLVGLTGKAGTGKTLLALASALKQAGTYKQILLARPIVALANKDLGFLPGDEKQKVAPYMQPLFDNLNVIKTQFAPGNPDVRKIDDMQKNNQLVIEALAFIRGRSLSETYCIIDEAQNLTPHEIKTIITRAGEGTKMVFTGDIQQIDSPYLDAQSNGLAYMIDKMKGQDLFAHINLIKGERSELSELASDLL | not soluble
8 | MTMPLRGLGPPDDTGVREVSTGDDHHYAMWDAAYVLGALSAADRREFEAHLAGCPECRGAVTELCGVPALLSQLDRDEVAAISESAPTVVASGLSPELLPSLLAAVHR | soluble
9 | MDVRSAPSNHATAVPTAQPSAPSIKSTLSKLFRAQCSDPVPLSSSSSTERIAPPRVTANYSAVVDISKTASHSKTNADTAEKNSFSWLKNKLSTVSENQQKKQAIQNFIAQVSQQYNVEEDVAKLAVAASGAYRQLRFEETQQQRVHACLQDTEALTAMIDLATRKPLTYKMVMGLDSSDCSFDPIARISDHDILTEAEQCQVVRSAFASADKVCVVTSYGIKPLGAPKSDALSPTIASVLQGFASKQHDKDFTGVFFYQKSDAIQNYYTEDKRTNISIKENDWAKAVTLFNAAVERGEIEGPKEGLK | not soluble
10 | HHQELCTKGDDALVTELECIRLRISPETNAAFDNAVQQLNCLNRACAYRKMCATNNLEQAMSVYFTNEQIKEIHDAATACDPEAHHEHDH | soluble
11 | MSLNAGKVVQTAKLFQDIHPEERLEKTLVDDRFAALREVIAGRTDGGQSGGGTMQIASLLTMLNEYYTQLTIADSALAAGTLPARITAADKLQLEAAKLPAPLKNILLDLTKQGTRKINAGTGDVLNTQMEAMMGDDCRDAIDGRYPFADSPQEVSAEDFNRIFASGGVLDAFWSKQLAPLADTASDPWRYKPTEGNMTLQGPDLTPFQQAKQIRSVFFNSEGGKKFSWSMQISVVDMDPAIMELVIDIDGQVLRYAHGPDRPLKVTWPGPRNGSMAEITASPRIRQDTSTLLTGGPWALFHLLDAGMVQETAVRGRQLVEYDFDGRRVVLEITAGRDFNPVSRELLQNFSCPARALEGHHHHHH | not soluble
12 | MGSDKIHHHHHHMAFRVILIENEVTIKVKLNNLIITKCGEDIWIPLDDISMIVLDNLASNLSTRLMCQLAEQGIGLMLYNQQHLPTGFYSAYDNHSRASKVIGFQIDKEQDYYGKLWQQIVKIKIENQAKAYQIMTRDSDGPEKIIEFSKNILIGDKSNREAHAAKVYFNLLMGTSFSRGNEDILLNSGLDYGYAVIRGYIARACVGYGLNTQIGIHHKSEYNRFNLVDDLMEPLRPIVDIVAYNSMKNDKYFTPEHRRKLVSILNMKIMYREKKMYMCNMIENYIEQYASLIMKRTDNIVFPDVYNLIGEEYG | not soluble
13 | MSLENHHEAKTKLGQLWKLGNHYLLCGDATKLSDVEKLLQGKKANLVVTDPPYNVAVKSDNKELNESGREKIMNDDMSDEEFDQFLMSVFQNYSNAMRDDSAIYVFHGSSYQREFENSMNAAGIVVRSQCIWVKNNATFGWSQYRWQHEPVFYAHKKKQAPSWYGDRKQTTIWQDDLLEDLPATIWKVPRDDVATYYHPTQKPLSLIAIPVRNSSKRQDIVLDLFGGSGSTLMTCEQLNRICYTLELDPLFCDVIIERFEKSTGIIAELVEGHHHHHH | soluble
14 | MEKPVMCKIIDVLDESPTVKTFLLDKEFDFKPGQFAMVWIPEIDEKPFGFSSKNSISIAKVGRFTEKIHSLKKGDLLGIRGPYGNNFEYMGSKILAVAGGIGSAPIISAVEKFSKMDVEVTSIIGGRTKDELLFLDRFEKCGRTFACTDDCSYGFGGFTTEKMLELLSKEKFDMIISCGPEIMMKKVVEIAEKHAIPIQVSLERYMKCGIGICGHCAVDDEGLCICKDGPVFWNDKLKFVSEFGKYKRDASGAIL | not soluble
15 | RSFAKDLEAKQKMSLTSWFLVSSGGTRHRLPREMIFVGRDDCELMLQSRSVDKQHAVINYDASTDEHLVKDLGSLNGTFVNDVRIPEQTYITLKLEDKLRFGYDTNLFTVVQGEMRVPEEALKHEKFTIQLQLSQKSSESELSKSASAKSIDSKVADAATEVQHKTTEALKSEEKAMDISAMPRGTPLYGQPSWWGDDEVDEKRAFKTNGKPEEKNHEAGTSGCSIDAKQVEEQSAAANEEVLFPFCREPSYFEIPTKEFQQPSQITESTIHEIPTKDTPSSHITGAGHASFTIEFDDSTPGKVTIRDHVTKFTSDQRHKSKKSSPGTQDLLGIQTGMMAPENKVADWLAQNNPPQMLWERTEEDSKSIKSDVPVYLKRLKGNKHDDGTQSDSENAGAHRRCSKRATLEEHLRRHHSEHKKLQKVQATEKHQDQAVVFGVDDNQDYNRPVINEKHKDLIKDWALSSAAAVMEERKPLTTSGFHHSEEGTSSSGSKRWVSQWASLAANHTRHDQEERIMEFSAPLPLENETEISESGMTVRSTGSATSLASQGERRRRTLPQLPNEEKSLESHRAKVVTQRSEIGEKQDTELQEKETPTQVYQKDKQDADRPLSKMNRAVNGETLKTGGDNKTLLHLGSSAPGKEKSETDKETSLVKQTLAKLQQQEQREEAQWTPTKLSSKNVSGQTDKCREETFKQESQPPEKNSGHSTSKGDRVAQSESKRRKAEEILKSQTPKGGDKKESSKSLVRQGSFTIEKPSPNIPIELIPHINKQTSSTPSSLALTSASRIRERSESLDPDSSMDTTLILKDTEAVMAFLEAKLREDNKTDEGPDTPSYNRDNSISPESDVDTASTISLVTGETERKSTQKRKSFTSLYKDRCSTGSPSKDVTKSSSSGAREKMEKKTKSRSTDVGSRADGRKFVQSSGRIRQPSVDLTDDDQTSSVPHSAISDIMSSDQETYSCKPHGRTPLTSADEHVHSKLEGSKVTKSKTSPVVSGSSSKSTTLPRPRPTRTSLLRRARLGEASDSELADADKASVASEVSTTSSTSKPPTGRRNISRIDLLAQPRRTRLGSLSARSDSEATISRSSASSRTAEAIIRSGARLVPSDKFSPRIRANSISRLSDSKVKSMTSAHGSASALKTTRLQSAGSAMPTSSSFKHRIKEQEDYIRDWTAHREEIARISQDLALIAREINDVAGEIDSVTSSGTAPSTTVSTAATTPGSAIDTREEVGDLHGEMHKLVDRVFDESLNFRKIPPLVHSKTPEGNNGRSGDPRPQAAEPPDHLTITRRRTWSRDEVMGDNLLLSSVFQFSKKIRQSIDKTAGKIRILFKDKDRNWDDIESKLRAESEVPIVKTSSMEISSILQELKRVEKQLQAINAMIDPDGTLEALNNMGFPSAMLPSPPKQKSSPVNNHHSPGQTPTLGQPEARALHPAAVSAAAEFENAESEADFSIHFNRFNPDGEEEDVTVQE | soluble
